# Experimental data reported in article PMC5458466, “DNA‐induced unfolding of the thyroid hormone receptor α A/B domain through allostery”.
# T1: TRα (A/B + DBD) (chicken, UniProt P04625 1-154)
# T1 sequence: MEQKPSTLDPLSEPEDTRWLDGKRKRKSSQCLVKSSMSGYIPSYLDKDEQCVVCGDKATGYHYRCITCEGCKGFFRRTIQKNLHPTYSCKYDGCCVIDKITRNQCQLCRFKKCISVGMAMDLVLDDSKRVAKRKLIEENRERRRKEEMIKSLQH
# B1: DR4 TRE (dsDNA)
# DNA 1: CCAGGTCATTTCAGGTCAG
# DNA 2: CTGACCTGAAATGACCTGG
# Target: T1, TRα (A/B + DBD)
# Assay: intrinsic Trp fluorescence quenching; room temperature, 2 uM protein, 5 mM Mg2+; average Kd, two-site fit; 50 mM HEPES pH 7.5, 125 mM NaCl, 5 mM MgCl2, 1 mM TCEP; ITC 25 C, fluorescence room temperature
# Conditions: protein: recombinant; tags: 6xHis (pET15b); chain copies: 2; blunt; 19-mer complementary strands annealed
binder,measurement,value
B1,Kd,2.69 ± 0.22 µM
